According to the supplement of paper PMC10065799, “High-throughput profiling of sequence recognition by tyrosine kinases and SH2 domains using bacterial peptide display” (eLife, 2023):

Assays:
FGFR3 = FGFR3 (UniProt P22607); assay: phosphorylation enrichment, bacterial display (enrichment ratio); higher = better substrate or ligand; peptides without Tyr show the background
c-Abl (mouse) = assay: as above
c-Src = assay: as above
Jak2 = Jak2 (UniProt O60674); assay: as above
Fes = Fes (UniProt P07332); assay: as above
Fer (mouse) = assay: as above
FGFR1 = FGFR1 (UniProt P11362); assay: as above
EPHB1 = EPHB1 (UniProt P54762); assay: as above
EPHB2 = EPHB2 (UniProt P29323); assay: as above
AncSZ = assay: as above
Fyn = Fyn (UniProt P06241); assay: as above
Hck = Hck (UniProt P08631); assay: as above
MERTK = MERTK (UniProt Q12866); assay: as above
Grb2 SH2 = Grb2 SH2 (UniProt P62993); assay: SH2 binding enrichment of the phosphorylated peptide, bacterial display (enrichment ratio); higher = better substrate or ligand; peptides without Tyr show the background
c-Src SH2 = assay: as above
SHP2-C SH2 = assay: as above
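Wherever SH2 binding enrichment of the phosphorylated peptide, bacterial display is given: peptide library displayed on the E. coli surface as eCPX fusions, selected cells deep-sequenced, score is each peptide's frequency after selection divided by its frequency in the input.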
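Wherever phosphorylation enrichment, bacterial display is given: 11-residue human phosphosite peptides and single-mutation variants displayed on the E. coli surface, counted by deep sequencing, each peptide's frequency after selection divided by its frequency in the unselected input library; frequency after pTyr selection over input frequency; kinase dosed for 20-30% of maximal phosphorylation in three min.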

Chain of Jak2 (O60674 whole entry, looked up): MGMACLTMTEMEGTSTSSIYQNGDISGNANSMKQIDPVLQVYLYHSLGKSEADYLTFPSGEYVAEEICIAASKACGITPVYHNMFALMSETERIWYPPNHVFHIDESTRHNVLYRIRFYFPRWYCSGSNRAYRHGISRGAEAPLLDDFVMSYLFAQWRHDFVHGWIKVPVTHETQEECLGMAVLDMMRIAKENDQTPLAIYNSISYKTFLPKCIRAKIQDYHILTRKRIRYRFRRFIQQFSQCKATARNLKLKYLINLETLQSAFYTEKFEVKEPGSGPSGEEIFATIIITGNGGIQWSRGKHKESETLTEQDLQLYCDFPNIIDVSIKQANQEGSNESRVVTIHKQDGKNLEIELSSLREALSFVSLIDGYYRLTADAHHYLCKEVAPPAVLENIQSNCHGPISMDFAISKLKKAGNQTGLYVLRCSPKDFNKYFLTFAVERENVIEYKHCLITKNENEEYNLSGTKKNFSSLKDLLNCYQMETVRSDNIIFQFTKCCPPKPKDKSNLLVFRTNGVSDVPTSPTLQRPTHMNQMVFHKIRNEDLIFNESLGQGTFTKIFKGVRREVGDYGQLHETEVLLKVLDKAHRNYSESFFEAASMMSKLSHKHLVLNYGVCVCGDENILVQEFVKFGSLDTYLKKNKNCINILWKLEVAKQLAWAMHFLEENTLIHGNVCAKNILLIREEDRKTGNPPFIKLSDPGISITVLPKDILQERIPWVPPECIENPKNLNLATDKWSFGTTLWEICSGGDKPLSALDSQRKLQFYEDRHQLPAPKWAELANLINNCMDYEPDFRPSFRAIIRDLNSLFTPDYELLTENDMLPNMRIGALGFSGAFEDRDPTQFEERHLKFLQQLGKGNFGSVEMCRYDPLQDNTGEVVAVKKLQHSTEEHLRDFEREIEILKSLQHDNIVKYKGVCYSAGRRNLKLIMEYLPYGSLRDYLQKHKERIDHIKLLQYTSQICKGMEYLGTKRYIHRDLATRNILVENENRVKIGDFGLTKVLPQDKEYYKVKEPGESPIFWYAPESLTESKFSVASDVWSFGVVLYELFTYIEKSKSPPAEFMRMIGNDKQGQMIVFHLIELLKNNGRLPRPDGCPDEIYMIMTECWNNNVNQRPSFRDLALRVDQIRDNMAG
Chain of MERTK (Q12866 whole entry, looked up): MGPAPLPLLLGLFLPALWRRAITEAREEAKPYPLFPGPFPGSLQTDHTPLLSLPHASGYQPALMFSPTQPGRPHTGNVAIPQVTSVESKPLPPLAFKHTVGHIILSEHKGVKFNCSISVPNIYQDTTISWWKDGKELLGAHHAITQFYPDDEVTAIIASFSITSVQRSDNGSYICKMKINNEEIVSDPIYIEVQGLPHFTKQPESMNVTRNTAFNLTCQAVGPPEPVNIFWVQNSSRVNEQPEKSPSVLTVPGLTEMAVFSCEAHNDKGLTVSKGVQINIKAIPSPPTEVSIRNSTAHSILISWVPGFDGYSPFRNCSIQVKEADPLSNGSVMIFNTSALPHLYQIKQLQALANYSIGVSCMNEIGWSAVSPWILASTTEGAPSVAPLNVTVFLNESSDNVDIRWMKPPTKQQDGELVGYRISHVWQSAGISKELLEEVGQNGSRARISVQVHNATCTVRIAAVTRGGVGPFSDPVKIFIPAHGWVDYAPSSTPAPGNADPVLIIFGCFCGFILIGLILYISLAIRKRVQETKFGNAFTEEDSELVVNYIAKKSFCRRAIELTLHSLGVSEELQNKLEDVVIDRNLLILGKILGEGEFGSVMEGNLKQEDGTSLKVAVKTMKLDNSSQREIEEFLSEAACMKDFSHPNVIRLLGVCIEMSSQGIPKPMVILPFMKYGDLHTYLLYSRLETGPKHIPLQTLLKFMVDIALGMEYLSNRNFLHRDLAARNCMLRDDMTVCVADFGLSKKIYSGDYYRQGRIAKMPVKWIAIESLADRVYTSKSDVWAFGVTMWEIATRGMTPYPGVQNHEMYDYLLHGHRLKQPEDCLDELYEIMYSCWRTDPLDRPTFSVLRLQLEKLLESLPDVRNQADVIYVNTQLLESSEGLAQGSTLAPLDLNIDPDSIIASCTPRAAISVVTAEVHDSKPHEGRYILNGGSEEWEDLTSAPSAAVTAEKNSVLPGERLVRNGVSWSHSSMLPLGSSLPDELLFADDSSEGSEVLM
Chain of EPHB2 (P29323 whole entry, looked up): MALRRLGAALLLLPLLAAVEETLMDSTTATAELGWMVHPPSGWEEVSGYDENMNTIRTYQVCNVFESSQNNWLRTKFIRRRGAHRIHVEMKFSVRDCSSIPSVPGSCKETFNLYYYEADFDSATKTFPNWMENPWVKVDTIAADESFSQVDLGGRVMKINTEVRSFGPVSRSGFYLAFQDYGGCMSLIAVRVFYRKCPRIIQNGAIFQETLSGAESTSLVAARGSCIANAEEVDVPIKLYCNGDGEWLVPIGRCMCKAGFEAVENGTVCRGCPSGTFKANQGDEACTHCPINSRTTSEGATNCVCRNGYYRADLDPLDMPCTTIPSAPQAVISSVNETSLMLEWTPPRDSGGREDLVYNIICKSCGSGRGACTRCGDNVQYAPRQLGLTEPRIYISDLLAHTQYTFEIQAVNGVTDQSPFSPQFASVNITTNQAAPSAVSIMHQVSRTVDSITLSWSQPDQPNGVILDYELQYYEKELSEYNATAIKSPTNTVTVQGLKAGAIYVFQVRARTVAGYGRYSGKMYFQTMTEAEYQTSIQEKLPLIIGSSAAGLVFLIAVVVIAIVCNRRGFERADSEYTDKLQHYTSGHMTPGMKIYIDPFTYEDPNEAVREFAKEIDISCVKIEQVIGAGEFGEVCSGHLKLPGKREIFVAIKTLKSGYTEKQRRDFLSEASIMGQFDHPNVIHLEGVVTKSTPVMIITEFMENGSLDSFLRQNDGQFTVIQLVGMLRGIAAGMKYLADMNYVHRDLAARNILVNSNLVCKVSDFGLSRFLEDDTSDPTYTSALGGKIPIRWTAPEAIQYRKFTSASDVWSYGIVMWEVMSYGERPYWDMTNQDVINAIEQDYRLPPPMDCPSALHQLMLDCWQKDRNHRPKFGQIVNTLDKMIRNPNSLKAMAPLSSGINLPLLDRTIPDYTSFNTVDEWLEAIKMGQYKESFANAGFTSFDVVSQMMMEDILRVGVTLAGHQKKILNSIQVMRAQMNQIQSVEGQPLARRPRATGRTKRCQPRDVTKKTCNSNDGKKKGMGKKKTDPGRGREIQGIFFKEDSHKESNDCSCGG
Chain of Fes (P07332 whole entry, looked up): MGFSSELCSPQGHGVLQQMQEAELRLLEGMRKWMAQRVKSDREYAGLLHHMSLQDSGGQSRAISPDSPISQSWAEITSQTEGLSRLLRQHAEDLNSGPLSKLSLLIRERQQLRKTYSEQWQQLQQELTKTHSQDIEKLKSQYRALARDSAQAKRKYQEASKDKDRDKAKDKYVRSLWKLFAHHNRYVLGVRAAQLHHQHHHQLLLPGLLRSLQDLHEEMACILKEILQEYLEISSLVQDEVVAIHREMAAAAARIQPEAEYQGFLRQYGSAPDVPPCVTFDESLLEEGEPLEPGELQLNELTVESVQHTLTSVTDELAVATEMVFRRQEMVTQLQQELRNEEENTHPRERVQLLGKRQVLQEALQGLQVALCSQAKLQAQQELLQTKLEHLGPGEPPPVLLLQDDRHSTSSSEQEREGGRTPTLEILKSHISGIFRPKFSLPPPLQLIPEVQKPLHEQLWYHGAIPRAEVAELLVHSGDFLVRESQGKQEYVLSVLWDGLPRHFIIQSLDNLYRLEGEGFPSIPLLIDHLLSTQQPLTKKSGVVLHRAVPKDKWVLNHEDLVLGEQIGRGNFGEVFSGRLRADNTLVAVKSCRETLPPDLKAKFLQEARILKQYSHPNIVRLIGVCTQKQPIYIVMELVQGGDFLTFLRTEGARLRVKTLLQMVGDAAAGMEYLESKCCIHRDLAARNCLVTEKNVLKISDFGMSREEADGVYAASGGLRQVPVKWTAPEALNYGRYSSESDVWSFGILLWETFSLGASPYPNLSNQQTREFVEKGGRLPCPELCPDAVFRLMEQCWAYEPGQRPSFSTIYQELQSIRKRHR
Chain of FGFR3 (P22607 whole entry, looked up): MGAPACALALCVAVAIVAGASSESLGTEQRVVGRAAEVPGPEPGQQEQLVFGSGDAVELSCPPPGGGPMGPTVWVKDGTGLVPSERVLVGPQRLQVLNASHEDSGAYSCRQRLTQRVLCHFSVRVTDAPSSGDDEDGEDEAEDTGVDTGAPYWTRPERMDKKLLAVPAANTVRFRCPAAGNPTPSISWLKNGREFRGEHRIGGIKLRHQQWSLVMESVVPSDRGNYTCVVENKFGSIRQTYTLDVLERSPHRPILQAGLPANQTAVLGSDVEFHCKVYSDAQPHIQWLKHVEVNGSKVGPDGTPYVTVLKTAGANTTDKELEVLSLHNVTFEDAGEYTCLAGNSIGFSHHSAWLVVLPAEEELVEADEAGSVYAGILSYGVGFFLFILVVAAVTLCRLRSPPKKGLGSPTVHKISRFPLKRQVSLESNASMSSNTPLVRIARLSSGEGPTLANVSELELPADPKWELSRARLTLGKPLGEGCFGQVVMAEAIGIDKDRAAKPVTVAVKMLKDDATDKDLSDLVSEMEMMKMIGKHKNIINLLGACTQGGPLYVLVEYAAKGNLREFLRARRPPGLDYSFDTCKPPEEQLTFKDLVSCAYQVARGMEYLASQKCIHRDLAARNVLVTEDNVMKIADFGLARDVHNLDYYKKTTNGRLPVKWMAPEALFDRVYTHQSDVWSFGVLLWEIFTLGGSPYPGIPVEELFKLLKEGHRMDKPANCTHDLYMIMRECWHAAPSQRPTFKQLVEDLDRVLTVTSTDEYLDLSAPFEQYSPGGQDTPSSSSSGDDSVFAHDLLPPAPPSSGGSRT

Row | Sequence | SH2 binding enrichment (Grb2 SH2) | SH2 binding enrichment (c-Src SH2) | SH2 binding enrichment (SHP2-C SH2) | phosphorylation enrichment (FGFR3) | phosphorylation enrichment (c-Abl (mouse)) | phosphorylation enrichment (c-Src) | phosphorylation enrichment (Jak2) | phosphorylation enrichment (Fes) | phosphorylation enrichment (Fer (mouse)) | phosphorylation enrichment (FGFR1) | phosphorylation enrichment (EPHB1) | phosphorylation enrichment (EPHB2) | phosphorylation enrichment (AncSZ) | phosphorylation enrichment (Fyn) | phosphorylation enrichment (Hck) | phosphorylation enrichment (MERTK)
1 | GLSDLYVKIHL [SYT2_Y309_P308L] | 1.04 | 0.567 | 0.599 | 0.804 | 0.94 | 0.495 | 1.38 | 1.45 | 0.705 | 0.452 | 0.826 | 0.615 | 1.26 | 0.623 | 0.613 | 0.428
2 | EDNPEYMRLRN [ADD2_Y31_D28N] | 0.85 | 0.511 | 0.73 | 0.653 | 0.713 | 0.459 | 1.05 | 0.969 | 0.447 | 0.547 | 0.518 | 0.515 | 1.09 | 0.444 | 0.489 | 0.408
3 | CRAVKYLQMVR [AVPR2_Y117_G122R] | 1.01 | 0.62 | 1.25 | 0.527 | 0.733 | 0.401 | 1.2 | 0.878 | 0.455 | 0.436 | 0.499 | 0.467 | 0.882 | 0.459 | 0.417 | 0.331
4 | YRTPGYREVVI [TNS2_Y673_A670T] | 0.941 | 0.753 | 1.03 | 0.447 | 1.23 | 0.465 | 0.587 | 0.721 | 0.399 | 0.42 | 0.358 | 0.453 | 0.799 | 0.425 | 0.341 | 0.472
5 | HNVPIYEGFAL [ACTA1_Y168_YF] | 0.849 | 0.431 | 0.794 | 0.785 | 23.5 | 10.6 | 0.894 | 7.74 | 22.7 | 0.649 | 22.5 | 28.1 | 1.59 | 15.1 | 14.1 | 12.4
6 | FVPSNYVAEDR [FRK_Y104_I100V_YF] | 0.788 | 0.588 | 0.76 | 0.662 | 0.625 | 0.35 | 0.642 | 0.827 | 0.409 | 0.447 | 0.527 | 0.625 | 0.782 | 0.439 | 0.431 | 0.38
7 | RGFRQYAFDGK [HLA-A_Y140_D140Y_YF] | 0.832 | 0.534 | 0.794 | 0.779 | 0.595 | 0.653 | 0.381 | 0.66 | 0.425 | 0.557 | 0.715 | 0.51 | 0.77 | 0.546 | 0.711 | 0.584
8 | QRIFQYIQSRF [DYRK1B_Y273_YF] | 1.15 | 0.9 | 1.17 | 0.619 | 0.583 | 0.557 | 1.58 | 1.45 | 0.693 | 0.416 | 0.707 | 0.356 | 1.09 | 0.502 | 0.572 | 0.728
9 | EGTGHYLCNAC [GATA5_Y208_D203E] | 1.09 | 0.445 | 0.81 | 0.566 | 0.525 | 0.395 | 0.505 | 0.57 | 0.378 | 0.462 | 0.354 | 0.375 | 0.524 | 0.411 | 0.352 | 0.54
10 | FGSSSYGGAGG [RPA2_Y14_YF] | 0.743 | 0.394 | 0.58 | 0.436 | 0.677 | 0.43 | 0.544 | 0.559 | 0.334 | 0.437 | 0.431 | 0.401 | 0.415 | 0.45 | 0.374 | 0.329
11 | THLARYSDELR [APOA1_Y190_P189R] | 0.96 | 0.554 | 0.622 | 0.449 | 0.405 | 0.397 | 0.543 | 0.645 | 0.616 | 0.437 | 0.32 | 0.412 | 0.653 | 0.539 | 0.4 | 0.494
12 | AFLEDYFTSTE [SRC_Y522] | 0.967 | 0.578 | 0.959 | 1.42 | 1.31 | 0.783 | 1.46 | 1.83 | 0.572 | 1.16 | 0.598 | 0.606 | 1.91 | 0.54 | 0.549 | 0.578
13 | NHYKRYNLCAE [PTEN_Y68_I67R] | 0.93 | 0.662 | 0.769 | 0.554 | 0.709 | 0.508 | 0.744 | 0.82 | 0.488 | 0.557 | 0.467 | 0.516 | 0.74 | 0.512 | 0.542 | 0.446
14 | RKKEEYKMAPY [F8_Y1990_L1994P] | 1.32 | 0.721 | 1.02 | 0.941 | 1.03 | 0.816 | 1.1 | 1.33 | 0.926 | 1.18 | 0.583 | 0.865 | 1.16 | 0.939 | 1.06 | 0.933
15 | QFLMMYVWSAS [ABCD1_Y337_K336M] | 0.929 | 0.543 | 1.03 | 1.22 | 1.27 | 0.779 | 1.46 | 1.58 | 0.807 | 0.426 | 0.873 | 0.931 | 1.53 | 0.465 | 0.912 | 0.541

Now from value to sequence, other results behind:

Row | SH2 binding enrichment (Grb2 SH2) | SH2 binding enrichment (c-Src SH2) | SH2 binding enrichment (SHP2-C SH2) | Sequence | phosphorylation enrichment (FGFR3) | phosphorylation enrichment (c-Abl (mouse)) | phosphorylation enrichment (c-Src) | phosphorylation enrichment (Jak2) | phosphorylation enrichment (Fes) | phosphorylation enrichment (Fer (mouse)) | phosphorylation enrichment (FGFR1) | phosphorylation enrichment (EPHB1) | phosphorylation enrichment (EPHB2) | phosphorylation enrichment (AncSZ) | phosphorylation enrichment (Fyn) | phosphorylation enrichment (Hck) | phosphorylation enrichment (MERTK)
16 | 0.778 | 0.622 | 0.874 | MSGDVYSTDYY [NTRK2_Y702_R699G] | 2.29 | 0.784 | 4.64 | 1.05 | 1.16 | 0.863 | 3.16 | 1.58 | 1.99 | 1.99 | 4.31 | 2.39 | 6.54
17 | 0.96 | 0.969 | 0.962 | HEKRAYICAHP [ACAD9_Y611_L606H] | 0.548 | 0.59 | 0.448 | 1.3 | 0.77 | 0.593 | 0.543 | 0.454 | 0.434 | 0.742 | 0.447 | 0.49 | 0.439
18 | 0.786 | 0.414 | 0.663 | VGEGPYLISDL [ABCC12_Y7] | 0.734 | 0.768 | 0.752 | 1.05 | 1.01 | 0.578 | 0.466 | 0.65 | 0.5 | 0.952 | 0.507 | 0.483 | 0.468
19 | 1.03 | 4.64 | 2.31 | PSELFYSKIGP [SMG1_Y2254_YF] | 3.84 | 2.46 | 5.2 | 2.1 | 1.2 | 10.4 | 5.34 | 2.31 | 2.08 | 1.21 | 3.97 | 10.6 | 15.5
20 | 1.39 | 18.1 | 0.806 | HPFHVYSQPGM [BAG3_Y114_P115S] | 0.908 | 0.847 | 0.937 | 0.984 | 1.39 | 0.719 | 0.753 | 0.649 | 0.945 | 1.78 | 1.24 | 1.74 | 0.804
21 | 0.75 | 0.379 | 0.636 | PSSNLYFRCLT [CNGA3_Y168_W171C_YF] | 1.03 | 0.967 | 0.48 | 1.66 | 1.63 | 0.694 | 1.19 | 0.828 | 0.809 | 1.5 | 0.707 | 0.88 | 0.808
22 | 0.708 | 0.633 | 0.454 | VEKEKYVSFIS [JMJD1C_Y596_M591V_YF] | 0.793 | 0.521 | 0.396 | 0.755 | 0.796 | 0.36 | 0.493 | 0.467 | 0.52 | 0.762 | 0.477 | 0.577 | 0.408
23 | 1.4 | 1.04 | 1.4 | VIKDKYPKVRF [APTX_Y209_A212V_YF] | 0.599 | 0.56 | 0.452 | 0.734 | 0.591 | 0.448 | 0.444 | 0.4 | 0.373 | 0.493 | 0.278 | 0.443 | 0.4
24 | 0.541 | 1.35 | 1.06 | PVQAAYQQVVA [HBB_Y131_K133Q] | 0.739 | 0.677 | 0.576 | 0.736 | 0.754 | 0.484 | 0.673 | 0.566 | 0.822 | 0.554 | 0.6 | 0.659 | 0.415
25 | 0.615 | 1.84 | 0.653 | LLASGYDSPIN [ABLIM1_Y638_R637G] | 1.09 | 1.03 | 0.556 | 0.737 | 1.28 | 0.423 | 0.859 | 0.764 | 0.825 | 1.33 | 0.529 | 0.783 | 0.52
26 | 0.973 | 0.686 | 0.712 | RRYLYYYSYLL [PTEN_Y177_V175L] | 1.93 | 1.02 | 1.68 | 3.29 | 1.75 | 1.24 | 1.74 | 1.13 | 0.91 | 1.13 | 0.816 | 1.17 | 5.8
27 | 1.07 | 0.651 | 0.509 | ATHRSYDSDNP [MMUT_Y146_G145S] | 0.511 | 0.518 | 0.447 | 0.543 | 0.777 | 0.422 | 0.593 | 0.346 | 0.459 | 1.13 | 0.47 | 0.476 | 0.57
28 | 0.704 | 0.632 | 0.693 | NTEGGYCCICA [CRELD1_Y328_R329C] | 0.668 | 0.894 | 0.529 | 0.878 | 0.966 | 0.583 | 0.562 | 0.497 | 0.657 | 1.02 | 0.512 | 0.911 | 0.673
29 | 1.13 | 5.24 | 0.962 | RMLREYQELMS [KRT74_Y425] | 0.555 | 0.663 | 0.57 | 0.611 | 0.837 | 0.357 | 0.95 | 0.66 | 0.432 | 0.821 | 0.699 | 0.532 | 0.527
30 | 0.941 | 0.996 | 1.22 | IFLGAYDRFLP [SLC22A5_Y486_V481I_YF] | 0.608 | 0.932 | 3.69 | 0.896 | 1 | 1.1 | 0.427 | 0.84 | 1.41 | 1.06 | 2.45 | 3.39 | 3.84
31 | 1.19 | 0.586 | 0.689 | KDHPDYEYQPR [SOX9_Y172_K173E] | 0.771 | 0.665 | 0.474 | 0.811 | 0.961 | 0.465 | 0.844 | 2.21 | 0.958 | 2.59 | 0.667 | 0.588 | 0.432
32 | 1.06 | 0.635 | 0.623 | ERCAQYKKDGA [ALDOA_Y138] | 0.484 | 0.496 | 0.391 | 0.622 | 0.574 | 0.341 | 0.438 | 0.409 | 0.487 | 0.612 | 0.394 | 0.396 | 0.368
33 | 1.05 | 0.711 | 0.818 | RLNCIYFKDQT [RS1_Y165_W163C_YF] | 0.599 | 1.05 | 1.08 | 1.3 | 1.32 | 0.56 | 0.683 | 0.827 | 0.732 | 1.16 | 0.59 | 0.77 | 0.871
